Laboratory results published in PMC10540216, “Activity Guided Azide-methyllysine Photo-trapping for Substrate Profiling of Lysine Demethylases” (Journal of the American Chemical Society, 2023).

B1: SAFB1_HUMAN (protein, UniProt Q15424 2-915, looked up)
Scaffold attachment factor B1: AETLSGLGDSGAAGAAALSSASSETGTRRLSDLRVIDLRAELRKRNVDSSGNKSVLMERLKKAIEDEGGNPDEIEITSEGNKKTSKRSSKGRKPEEEGVEDNGLEENSGDGQEDVETSLENLQDIDIMDISVLDEAEIDNGSVADCVEDDDADNLQESLSDSRELVEGEMKELPEQLQEHAIEDKETINNLDTSSSDFTILQEIEEPSLEPENEKILDILGETCKSEPVKEESSELEQPFAQDTSSVGPDRKLAEEEDLFDSAHPEEGDLDLASESTAHAQSSKADSLLAVVKREPAEQPGDGERTDCEPVGLEPAVEQSSAASELAEASSEELAEAPTEAPSPEARDSKEDGRKFDFDACNEVPPAPKESSTSEGADQKMSSPEDDSDTKRLSKEEKGRSSCGRNFWVSGLSSTTRATDLKNLFSKYGKVVGAKVVTNARSPGARCYGFVTMSTAEEATKCINHLHKTELHGKMISVEKAKNEPVGKKTSDKRDSDGKKEKSSNSDRSTNLKRDDKCDRKDDAKKGDDGSGEKSKDQDDQKPGPSERSRATKSGSRGTERTVVMDKSKGVPVISVKTSGSKERASKSQDRKSASREKRSVVSFDKVKEPRKSRDSESHSRVRERSEREQRMQAQWEREERERLEIARERLAFQRQRLERERMERERLERERMHVEHERRREQERIHREREELRRQQELRYEQERRPAVRRPYDLDRRDDAYWPEAKRAALDERYHSDFNRQDRFHDFDHRDRGRYPDHSVDRREGSRSMMGEREGQHYPERHGGPERHGRDSRDGWGGYGSDKRMSEGRGLPPPPRRDWGDHGRREDDRSWQGTADGGMMDRDHKRWQGGERSMSGHSGPGHMMNRGGMSGRGSFAPGGASRGHPIPHGGMQGGFGGQSRGSRPSDARFTRRY
B2: YTDC2_HUMAN (protein, UniProt Q9H6S0 1-1430, looked up)
3'-5' RNA helicase YTHDC2: MSRPSSVSPRQPAPGGGGGGGPSPCGPGGGGRAKGLKDIRIDEEVKIAVNIALERFRYGDQREMEFPSSLTSTERAFIHRLSQSLGLVSKSKGKGANRYLTVKKKDGSETAHAMMTCNLTHNTKHAVRSLIQRFPVTNKERTELLPKTERGNVFAVEAENREMSKTSGRLNNGIPQIPVKRGESEFDSFRQSLPVFEKQEEIVKIIKENKVVLIVGETGSGKTTQIPQFLLDDCFKNGIPCRIFCTQPRRLAAIAVAERVAAERRERIGQTIGYQIRLESRVSPKTLLTFCTNGVLLRTLMAGDSTLSTVTHVIVDEVHERDRFSDFLLTKLRDLLQKHPTLKLILSSAALDVNLFIRYFGSCPVIYIQGRPFEVKEMFLEDILRTTGYTNKEMLKYKKEKQQEEKQQTTLTEWYSAQENSFKPESQRQRTVLNVTDEYDLLDDGGDAVFSQLTEKDVNCLEPWLIKEMDACLSDIWLHKDIDAFAQVFHLILTENVSVDYRHSETSATALMVAAGRGFASQVEQLISMGANVHSKASNGWMALDWAKHFGQTEIVDLLESYSATLEFGNLDESSLVQTNGSDLSAEDRELLKAYHHSFDDEKVDLDLIMHLLYNICHSCDAGAVLIFLPGYDEIVGLRDRILFDDKRFADSTHRYQVFMLHSNMQTSDQKKVLKNPPAGVRKIILSTNIAETSITVNDVVFVIDSGKVKEKSFDALNFVTMLKMVWISKASAIQRKGRAGRCRPGICFRLFSRLRFQNMLEFQTPELLRMPLQELCLHTKLLAPVNCPIADFLMKAPEPPPALIVRNAVQMLKTIDAMDTWEDLTELGYHLADLPVEPHLGKMVLCAVVLKCLDPILTIACTLAYRDPFVLPTQASQKRAAMLCRKRFTAGAFSDHMALLRAFQAWQKARSDGWERAFCEKNFLSQATMEIIIGMRTQLLGQLRASGFVRARGGGDIRDVNTNSENWAVVKAALVAGMYPNLVHVDRENLVLTGPKEKKVRFHPASVLSQPQYKKIPPANGQAAAIKALPTDWLIYDEMTRAHRIANIRCCSAVTPVTILVFCGPARLASNALQEPSSFRVDGIPNDSSDSEMEDKTTANLAALKLDEWLHFTLEPEAASLLLQLRQKWHSLFLRRMRAPSKPWSQVDEATIRAIIAVLSTEEQSAGLQQPSGIGQRPRPMSSEELPLASSWRSNNSRKSSADTEFSDECTTAERVLMKSPSPALHPPQKYKDRGILHPKRGTEDRSDQSSLKSTDSSSYPSPCASPSPPSSGKGSKSPSPRPNMPVRYFIMKSSNLRNLEISQQKGIWSTTPSNERKLNRAFWESSIVYLVFSVQGSGHFQGFSRMSSEIGREKSQDWGSAGLGGVFKVEWIRKESLPFQFAHHLLNPWNDNKKVQISRDGQELEPLVGEQLLQLWERLPLGEKNTTD
B3: PREP_HUMAN (protein, UniProt Q5JRX3 29-1037, looked up)
Presequence protease, …: NSNRACERALQYKLGDKIHGFTVNQVTSVPELFLTAVKLTHDDTGARYLHLAREDTNNLFSVQFRTTPMDSTGVPHILEHTVLCGSQKYPCRDPFFKMLNRSLSTFMNAFTASDYTLYPFSTQNPKDFQNLLSVYLDATFFPCLRELDFWQEGWRLEHENPSDPQTPLVFKGVVFNEMKGAFTDNERIFSQHLQNRLLPDHTYSVVSGGDPLCIPELTWEQLKQFHATHYHPSNARFFTYGNFPLEQHLKQIHEEALSKFQKIEPSTVVPAQTPWDKPREFQITCGPDSFATDPSKQTTISVSFLLPDITDTFEAFTLSLLSSLLTSGPNSPFYKALIESGLGTDFSPDVGYNGYTREAYFSVGLQGIAEKDIETVRSLIDRTIDEVVEKGFEDDRIEALLHKIEIQMKHQSTSFGLMLTSYIASCWNHDGDPVELLKLGNQLAKFRQCLQENPKFLQEKVKQYFKNNQHKLTLSMRPDDKYHEKQAQVEATKLKQKVEALSPGDRQQIYEKGLELRSQQSKPQDASCLPALKVSDIEPTIPVTELDVVLTAGDIPVQYCAQPTNGMVYFRAFSSLNTLPEELRPYVPLFCSVLTKLGCGLLDYREQAQQIELKTGGMSASPHVLPDDSHMDTYEQGVLFSSLCLDRNLPDMMQLWSEIFNNPCFEEEEHFKVLVKMTAQELANGIPDSGHLYASIRAGRTLTPAGDLQETFSGMDQVRLMKRIAEMTDIKPILRKLPRIKKHLLNGDNMRCSVNATPQQMPQTEKAVEDFLRSIGRSKKERRPVRPHTVEKPVPSSSGGDAHVPHGSQVIRKLVMEPTFKPWQMKTHFLMPFPVNYVGECIRTVPYTDPDHASLKILARLMTAKFLHTEIREKGGAYGGGAKLSHNGIFTLYSYRDPNTIETLQSFGKAVDWAKSGKFTQQDIDEAKLSVFSTVDAPVAPSDKGMDHFLYGLSDEMKQAHREQLFAVSHDKLLAVSDRYLGTGKSTHGLAILGPENPKIAKDPSWIIQ
B4: NCKP1_HUMAN (protein, UniProt Q9Y2A7 2-1128, looked up)
Nck-associated protein 1: SRSVLQPSQQKLAEKLTILNDRGVGMLTRLYNIKKACGDPKAKPSYLIDKNLESAVKFIVRKFPAVETRNNNQQLAQLQKEKSEILKNLALYYFTFVDVMEFKDHVCELLNTIDVCQVFFDITVNFDLTKNYLDLIITYTTLMILLSRIEERKAIIGLYNYAHEMTHGASDREYPRLGQMIVDYENPLKKMMEEFVPHSKSLSDALISLQMVYPRRNLSADQWRNAQLLSLISAPSTMLNPAQSDTMPCEYLSLDAMEKWIIFGFILCHGILNTDATALNLWKLALQSSSCLSLFRDEVFHIHKAAEDLFVNIRGYNKRINDIRECKEAAVSHAGSMHRERRKFLRSALKELATVLSDQPGLLGPKALFVFMALSFARDEIIWLLRHADNMPKKSADDFIDKHIAELIFYMEELRAHVRKYGPVMQRYYVQYLSGFDAVVLNELVQNLSVCPEDESIIMSSFVNTMTSLSVKQVEDGEVFDFRGMRLDWFRLQAYTSVSKASLGLADHRELGKMMNTIIFHTKMVDSLVEMLVETSDLSIFCFYSRAFEKMFQQCLELPSQSRYSIAFPLLCTHFMSCTHELCPEERHHIGDRSLSLCNMFLDEMAKQARNLITDICTEQCTLSDQLLPKHCAKTISQAVNKKSKKQTGKKGEPEREKPGVESMRKNRLVVTNLDKLHTALSELCFSINYVPNMVVWEHTFTPREYLTSHLEIRFTKSIVGMTMYNQATQEIAKPSELLTSVRAYMTVLQSIENYVQIDITRVFNNVLLQQTQHLDSHGEPTITSLYTNWYLETLLRQVSNGHIAYFPAMKAFVNLPTENELTFNAEEYSDISEMRSLSELLGPYGMKFLSESLMWHISSQVAELKKLVVENVDVLTQMRTSFDKPDQMAALFKRLSSVDSVLKRMTIIGVILSFRSLAQEALRDVLSYHIPFLVSSIEDFKDHIPRETDMKVAMNVYELSSAAGLPCEIDPALVVALSSQKSENISPEEEYKIACLLMVFVAVSLPTLASNVMSQYSPAIEGHCNNIHCLAKAINQIAAALFTIHKGSIEDRLKEFLALASSSLLKIGQETDKTTTRNRESVYLLLDMIVQESPFLTMDLLESCFPYVLLRNAYHAVYKQSVTSSA

Test system: KDM4A-I71AzF
Assay: CASI: photo-crosslinking with HEK293T cell extracts, StrepTactin enrichment and LC-MS/MS proteomics;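 further: lysates from HEK293T cells pretreated with a KDM4 inhibitor to raise proteome methylation, affinity-purified after ±UV, gel-resolved, trypsin-digested, with exclusive unique peptides per protein averaged per condition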
Format: binding, human
Conditions: sheet "Final results but with 0.01"

Molecule	Fold change (+UV/-UV)
B1	0.5
B2	0.3333
B3	0.2
B4	0.6
